Like-named read-outs stand apart in the source and are kept apart here.
T1: GST-ATG8f (Y26E R29E) (Arabidopsis thaliana, UniProt Q8VYK7 1-117, Y26E | R29E)
T1 sequence (looked up): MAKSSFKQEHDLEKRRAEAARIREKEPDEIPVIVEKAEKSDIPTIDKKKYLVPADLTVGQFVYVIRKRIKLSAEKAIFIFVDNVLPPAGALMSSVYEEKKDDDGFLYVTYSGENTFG

T2: GST-ATG8f R29E (Arabidopsis thaliana, UniProt Q8VYK7 1-117, R29E)
T2 sequence (looked up): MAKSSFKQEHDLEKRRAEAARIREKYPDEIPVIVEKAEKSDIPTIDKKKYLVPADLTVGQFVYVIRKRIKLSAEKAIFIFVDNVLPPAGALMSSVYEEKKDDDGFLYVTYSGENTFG

T3: GST-ATG8f Y26E (Arabidopsis thaliana, UniProt Q8VYK7 1-117, Y26E)
T3 sequence (looked up): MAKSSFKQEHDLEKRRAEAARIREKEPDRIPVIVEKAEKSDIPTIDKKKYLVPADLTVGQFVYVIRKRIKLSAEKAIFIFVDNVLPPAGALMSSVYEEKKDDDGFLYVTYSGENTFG

T4: GST-ATG8f K47E (Arabidopsis thaliana, UniProt Q8VYK7 1-117, K47E)
T4 sequence (looked up): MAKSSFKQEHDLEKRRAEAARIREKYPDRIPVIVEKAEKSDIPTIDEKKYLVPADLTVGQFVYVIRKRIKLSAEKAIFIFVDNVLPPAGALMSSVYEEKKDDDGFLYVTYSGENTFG

T5: GST-ATG8f (Arabidopsis thaliana, UniProt Q8VYK7 1-117)
T5 sequence (looked up): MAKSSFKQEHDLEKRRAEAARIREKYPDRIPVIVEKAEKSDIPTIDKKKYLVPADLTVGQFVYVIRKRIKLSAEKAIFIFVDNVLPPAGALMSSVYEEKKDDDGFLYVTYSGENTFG

T6: GST-ATG8i (Arabidopsis thaliana, UniProt Q9LRP7 1-115)
T6 sequence (looked up): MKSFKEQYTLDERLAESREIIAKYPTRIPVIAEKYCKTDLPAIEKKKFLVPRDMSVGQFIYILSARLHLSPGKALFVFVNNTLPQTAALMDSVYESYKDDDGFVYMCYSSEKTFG

T7: GST-ATG8d (Arabidopsis thaliana, UniProt Q9SL04 1-120)
T7 sequence (looked up): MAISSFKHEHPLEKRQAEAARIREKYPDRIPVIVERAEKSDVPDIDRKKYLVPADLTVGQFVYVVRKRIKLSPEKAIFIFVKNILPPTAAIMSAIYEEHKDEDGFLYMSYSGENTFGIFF

T8: GST-ATG8b (Arabidopsis thaliana, UniProt Q9XEB5 1-117)
T8 sequence (looked up): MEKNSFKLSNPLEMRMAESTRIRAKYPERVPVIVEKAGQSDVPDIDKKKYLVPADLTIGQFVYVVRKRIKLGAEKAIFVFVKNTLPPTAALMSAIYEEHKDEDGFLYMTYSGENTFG

T9: GST-ATG8g (Arabidopsis thaliana, UniProt Q9LZZ9 1-117)
T9 sequence (looked up): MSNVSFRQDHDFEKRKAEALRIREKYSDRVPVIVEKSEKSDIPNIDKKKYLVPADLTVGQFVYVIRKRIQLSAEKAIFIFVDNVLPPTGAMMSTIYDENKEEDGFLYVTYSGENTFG

T10: GST-ATG8c (Arabidopsis thaliana, UniProt Q8S927 1-119)
T10 sequence (looked up): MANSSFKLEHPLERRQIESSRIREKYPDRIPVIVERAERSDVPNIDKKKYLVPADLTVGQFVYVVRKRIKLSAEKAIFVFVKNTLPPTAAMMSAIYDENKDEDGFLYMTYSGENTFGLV

T11: GST-ATG8e (Arabidopsis thaliana, UniProt Q8S926 1-118)
T11 sequence (looked up): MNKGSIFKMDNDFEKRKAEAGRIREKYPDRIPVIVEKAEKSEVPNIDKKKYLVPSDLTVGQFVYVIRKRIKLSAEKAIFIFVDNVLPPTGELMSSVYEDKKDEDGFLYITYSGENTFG

T12: GST-ATG8a (Arabidopsis thaliana, UniProt Q8LEM4 1-117)
T12 sequence (looked up): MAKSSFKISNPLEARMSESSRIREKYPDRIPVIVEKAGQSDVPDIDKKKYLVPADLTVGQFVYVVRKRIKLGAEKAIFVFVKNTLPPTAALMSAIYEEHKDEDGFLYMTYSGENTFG

T13: GST-ATG8h (Arabidopsis thaliana, UniProt Q8S925 1-119)
T13 sequence (looked up): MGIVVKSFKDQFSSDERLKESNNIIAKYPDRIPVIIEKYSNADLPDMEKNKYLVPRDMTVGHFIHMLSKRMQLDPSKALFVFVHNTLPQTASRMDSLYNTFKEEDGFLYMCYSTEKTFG

T14: Arabidopsis ATG8f (tag-free) (Arabidopsis thaliana, UniProt Q8VYK7 1-117)
T14 sequence: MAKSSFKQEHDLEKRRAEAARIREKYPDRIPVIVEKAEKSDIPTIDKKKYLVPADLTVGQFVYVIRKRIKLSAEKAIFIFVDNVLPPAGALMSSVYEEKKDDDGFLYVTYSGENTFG


Legend:
[1] = biological target: T1, GST-ATG8f (Y26E R29E); assay: pull-down
[2] = biological target: T2, GST-ATG8f R29E; assay: pull-down
[3] = biological target: T3, GST-ATG8f Y26E; assay: pull-down
[4] = biological target: T4, GST-ATG8f K47E; assay: pull-down
[5] = biological target: T5, GST-ATG8f; assay: pull-down
[6] = biological target: T6, GST-ATG8i; assay: pull-down
[7] = biological target: T7, GST-ATG8d; assay: pull-down
[8] = biological target: T8, GST-ATG8b; assay: pull-down
[9] = biological target: T9, GST-ATG8g; assay: pull-down
[10] = biological target: T10, GST-ATG8c; assay: pull-down
[11] = biological target: T11, GST-ATG8e; assay: pull-down
[12] = biological target: T12, GST-ATG8a; assay: pull-down
[13] = biological target: T13, GST-ATG8h; assay: pull-down
[14] = biological target: T14, Arabidopsis ATG8f (tag-free); assay: SEC
[15] = biological target: T14, Arabidopsis ATG8f (tag-free); assay: pull-down
[16] = biological target: T5, GST-ATG8f; assay: pull-down; remark: listed apart in the source

binding result [1] | binding result [2] | binding result [3] | binding result [4] | binding result [5] | binding result [6] | binding result [7] | binding result [8] | binding result [9] | binding result [10] | binding result [11] | binding result [12] | binding result [13] | binding result [14] | binding result [15] | binding result [16] | Binder
binds | binds | binds | binds | binds | binds | binds | binds | binds | binds | binds | binds | binds | binds |  |  | SH3 domain of SH3P2, SH3P2 (279-368) (domain or fragment, Arabidopsis thaliana, UniProt Q8VWF1 279-368, looked up) SYEEANGVFASQMHDTSTDSMGYFLGEVLFPYHGVTDVELSLSTGEYVVVRKVTGSGWAEGECKGKAGWFPYGYIERRERVLASKVSEVF
 |  |  |  |  |  |  |  |  |  |  |  |  |  | binds |  | GVSEWDPILEE [NBR1 AIM peptide (657-667 aa)]
 |  |  |  |  |  |  |  |  |  |  |  |  | binds |  | binds | UBA domain (619-704 aa) of NBR1 (domain or fragment, Arabidopsis thaliana, UniProt Q9SB64 619-704, looked up) EITMLKELEEMGFKEIDLNKEILRDNEYNLEQSVDALCGVSEWDPILEELQEMGFCDDVTNKRLLKKNNGSIKGVVMDLLTGEKEA
